Test results reported in patent US20250090695A1, “IMMUNOSTIMULANT-CYTOTOXIC CONJUGATE COMPOSITION AND METHODS FOR CANCER TREATMENT” (The Research Foundation for the State University of New York, priority 2022, published 2025).

How the values were obtained:
in vivo = details: C57BL/6J, mouse, total radioactivity
[1] = Biodistribution in a xenograft model of prostate cancer with PC-3 PiP (PSMA(+)) and PC-3 flu (PSMA(−)) tumors; format: in vivo, Male NCr nude mice; details: male, mouse, total radioactivity, PC-3 PiP/PC-3 flu xenograft, NCr nude mice
Method: Biodistribution analyses of ^177Lu-RIMS-1 and ^177Lu-PSMA-617 were carried out in a xenograft model of prostate cancer with a PC-3 PiP tumor (PSMA(+)) on the left shoulder of a murine subject, and a PC-3 flu tumor (PSMA(−)) on the right should of a murine subject. Murine subjects examined were Male NCr nude mice.

[2] = system: CD8+ and CD4+ T-cell populations; assay: T-cell population analysis in spleen and tumor of RM1-PGLS bearing mice; format: in vivo; set-up: unit not given here; details: RM1-PGLS bearing C57BL/6J mice
Method: FIG. 12A-12B show graphical representations of T-cell population analysis measuring cell viability in the spleen (FIG. 12A). and in the tumor (FIG. 12B) in vivo for subjects having RM1-PGLS tumors with either an experimental ^177Lu-RIMS compound, or a control compound selected from: ^177Lu-PSMA-617, unlabeled Lu-RIMS, or a control vehicle.
^177Lu-RIMS-1 and control compounds were evaluated for immune cell recruitment.

[3] = Biodistribution Heart (% ID/g ± SD)
[4] = Biodistribution Kidney (% ID/g ± SD)
[5] = Biodistribution Liver (% ID/g ± SD)
[6] = Biodistribution Muscle (% ID/g ± SD)
[7] = Biodistribution RM1-PGLS tumor (% ID/g ± SD)
[8] = Biodistribution Sm Int (% ID/g ± SD)
[9] = Biodistribution Spleen (% ID/g ± SD)
[10] = PSMA(+) PC-3 PiP tumor, read-out: Biodistribution PSMA (+) (PC3-PIP) tumor (% ID/g ± SD)
[11] = PSMA(-) PC-3 flu tumor, read-out: Biodistribution PSMA (−) (PC3-Flu) tumor (% ID/g ± SD)
[12] = blood, read-out: Biodistribution Blood (% ID/g ± SD)
[13] = bone, read-out: Biodistribution Bone (% ID/g ± SD)
[14] = heart, read-out: Biodistribution Heart (% ID/g ± SD)
[15] = kidney, read-out: Biodistribution Kidney (% ID/g ± SD)
[16] = liver, read-out: Biodistribution Liver (% ID/g ± SD)
[17] = small intestine, read-out: Biodistribution Sm Int (% ID/g ± SD)
[18] = spleen, read-out: Biodistribution Spleen (% ID/g ± SD)

**Q.** What does the source list for `CCCCc1nc2c(N)nc3ccccc3c2n1Cc1ccc(CNC(=O)OCc2ccc(NC(=O)[C@H](C)NC(=O)[C@@H](NC(=O)CCCCC(=O)N[C@@H](CCCCNC(=O)CN3CCN(CC(=O)O)CCN(CC(=O)O)CCN(CC(=O)O)CC3)C(=O)NC[C@H]3CC[C@H](C(=O)N[C@@H](Cc4ccc5ccccc5c4)C(=O)NCCCC[C@H](NC(=O)N[C@@H](CCC(=O)O)C(=O)O)C(=O)O)CC3)C(C)C)cc2)cc1` [^177Lu-RIMS-1, metal not drawn]?
**A.** tissue uptake at 24 h (in vivo; [3]): 0.13 ± 0.11 %ID/g; tissue uptake at 72 h (in vivo; [3]): 0.03 ± 0.01 %ID/g; tissue uptake at 2 h (in vivo; [4]): 15.3 ± 3.61 %ID/g; tissue uptake at 24 h (in vivo; [4]): 5.03 ± 2.2 %ID/g; tissue uptake at 72 h (in vivo; [4]): 1.66 ± 0.37 %ID/g; tissue uptake at 2 h (in vivo; [5]): 23.4 ± 6.93 %ID/g; tissue uptake at 24 h (in vivo; [5]): 8.69 ± 1.53 %ID/g; tissue uptake at 72 h (in vivo; [5]): 7.28 ± 1.06 %ID/g; tissue uptake at 2 h (in vivo; [6]): 0.27 ± 0.08 %ID/g; tissue uptake at 24 h (in vivo; [6]): 0.04 ± 0.03 %ID/g; tissue uptake at 72 h (in vivo; [6]): 0.02 ± 0.01 %ID/g; tissue uptake at 2 h (in vivo; [7]): 1.98 ± 0.37 %ID/g; tissue uptake at 24 h (in vivo; [7]): 0.66 ± 0.24 %ID/g; tissue uptake at 72 h (in vivo; [7]): 0.23 ± 0.06 %ID/g; tissue uptake at 2 h (in vivo; [8]): 0.55 ± 0.3 %ID/g; tissue uptake at 24 h (in vivo; [8]): 0.07 ± 0.02 %ID/g; tissue uptake at 72 h (in vivo; [8]): 0.05 ± 0.01 %ID/g; tissue uptake at 2 h (in vivo; [9]): 10.3 ± 2.96 %ID/g; tissue uptake at 24 h (in vivo; [9]): 2.16 ± 0.73 %ID/g; tissue uptake at 72 h (in vivo; [9]): 1.14 ± 0.36 %ID/g; tissue uptake at 2 h [1, 10]: 7.16 ± 2.68 %ID/g; tissue uptake at 24 h [1, 10]: 6.04 ± 1.76 %ID/g; tissue uptake at 72 h [1, 10]: 2.65 ± 1.03 %ID/g; tissue uptake at 2 h [1, 11]: 1.65 ± 0.24 %ID/g; tissue uptake at 24 h [1, 11]: 0.16 ± 0.01 %ID/g; tissue uptake at 2 h [1, 12]: 3.36 ± 0.2 %ID/g; tissue uptake at 24 h [1, 12]: 0.06 ± 0.01 %ID/g; tissue uptake at 72 h [1, 12]: 0.01 ± 0.01 %ID/g; tissue uptake at 2 h [1, 13]: 0.72 ± 0.15 %ID/g; tissue uptake at 24 h [1, 13]: 0.17 ± 0.06 %ID/g; tissue uptake at 72 h [1, 13]: 0.1 ± 0.04 %ID/g; tissue uptake at 2 h [1, 14]: 1.28 ± 0.08 %ID/g; tissue uptake at 24 h [1, 14]: 0.16 ± 0.02 %ID/g; tissue uptake at 72 h [1, 14]: 0.06 ± 0.01 %ID/g; tissue uptake at 2 h [1, 15]: 24.5 ± 2.58 %ID/g; tissue uptake at 24 h [1, 15]: 6.24 ± 1.03 %ID/g; tissue uptake at 72 h [1, 15]: 2.1 ± 0.31 %ID/g; tissue uptake at 2 h [1, 16]: 7.95 ± 0.35 %ID/g; tissue uptake at 24 h [1, 16]: 3.19 ± 0.38 %ID/g; tissue uptake at 72 h [1, 16]: 1.36 ± 0.29 %ID/g; tissue uptake at 2 h ([1]; muscle, read-out: Biodistribution Muscle (% ID/g ± SD)): 0.36 ± 0.06 %ID/g; tissue uptake at 2 h [1, 17]: 1.15 ± 0.1 %ID/g; tissue uptake at 24 h [1, 17]: 0.54 ± 0.8 %ID/g; tissue uptake at 2 h [1, 18]: 2.32 ± 0.052 %ID/g; tissue uptake at 24 h [1, 18]: 0.77 ± 0.31 %ID/g; tissue uptake at 72 h [1, 18]: 0.29 ± 0.11 %ID/g; Total CD4+ T-cell population ([2]; Spleen): 14.51 ± 2.24; Total CD8+ T-cell population ([2]; Spleen): 7.70 ± 0.84; Total CD4+ T-cell population ([2]; Tumor): 2.07 ± 1.54; Total CD8+ T-cell population ([2]; Tumor): 4.72 ± 2.70
